Results from patent US20240100176A1, “HUMAN INTERLEUKIN-4 RECEPTOR ALPHA ANTIBODY GLUCOCORTICOID CONJUGATES” (Eli Lilly and Company, priority 2022, published 2024).
pKd: −log10 of the molar value. Where two headings read alike, the source gives them in different places.

Assays:
[1] = target: human FcγRI (CD64) extracellular domain (human) (UniProt P12314); experiment: SPR (Biacore), antibody captured on protein A, FcγR ECD as analyte, 25 °C
[2] = target: human FcγRIIIA_158V (CD16a) extracellular domain (human) (UniProt P08637); experiment: SPR (Biacore), antibody captured on protein A, FcγR ECD as analyte, steady state, 25 °C
human FcγRIIIA_158V (CD16a) extracellular domain (human), sequence (P08637 17-208 F176V): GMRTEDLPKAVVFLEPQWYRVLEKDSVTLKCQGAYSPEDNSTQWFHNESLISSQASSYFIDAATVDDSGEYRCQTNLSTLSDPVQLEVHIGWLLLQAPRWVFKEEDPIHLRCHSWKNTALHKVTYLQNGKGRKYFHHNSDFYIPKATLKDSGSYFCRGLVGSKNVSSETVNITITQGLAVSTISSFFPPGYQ

[3] = target: human FcγRIIA_131H (CD32a) extracellular domain (human) (UniProt P12318); experiment: as above
human FcγRIIA_131H (CD32a) extracellular domain (human), sequence (P12318 34-217): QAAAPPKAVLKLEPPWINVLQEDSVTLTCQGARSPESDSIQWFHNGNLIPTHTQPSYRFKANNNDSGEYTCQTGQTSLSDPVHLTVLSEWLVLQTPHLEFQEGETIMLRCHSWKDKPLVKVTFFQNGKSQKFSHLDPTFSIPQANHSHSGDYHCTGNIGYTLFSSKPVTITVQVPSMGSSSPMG

[4] = target: human FcγRIIb (CD32b) extracellular domain (human) (UniProt P31994); experiment: as above
human FcγRIIb (CD32b) extracellular domain (human), sequence (P31994 43-217): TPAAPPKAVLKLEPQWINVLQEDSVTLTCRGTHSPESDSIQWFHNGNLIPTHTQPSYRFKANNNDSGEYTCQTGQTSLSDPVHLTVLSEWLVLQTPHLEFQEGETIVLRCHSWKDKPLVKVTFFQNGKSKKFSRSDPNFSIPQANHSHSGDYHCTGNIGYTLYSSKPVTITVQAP

[5] = target: human FcγRIIA_131R (CD32a) extracellular domain (human) (UniProt P12318); experiment: as above
human FcγRIIA_131R (CD32a) extracellular domain (human), sequence (P12318 34-217 H167R): as the sequence (P12318 34-217) above, with H134R counted along it

[6] = target: human FcγRIIIA_158F (CD16a) extracellular domain (human) (UniProt P08637); experiment: as above
human FcγRIIIA_158F (CD16a) extracellular domain (human), sequence (P08637 17-208): as the sequence (P08637 17-208 F176V) above, with V160F counted along it

[7] = target: human FcγRIIA_131H (CD32a) extracellular domain (human) (UniProt P12318); experiment: as above; remark: listed apart in the source
[8] = target: human FcγRIIb (CD32b) extracellular domain (human) (UniProt P31994); experiment: as above; remark: listed apart in the source
[9] = target: human FcγRIIA_131R (CD32a) extracellular domain (human) (UniProt P12318); experiment: as above; remark: listed apart in the source
[10] = target: human FcγRI (CD64) extracellular domain (human) (UniProt P12314); experiment: SPR (Biacore), antibody captured on protein A, FcγR ECD as analyte, 25 °C; remark: listed apart in the source
[11] = target: human FcγRIIIA_158F (CD16a) extracellular domain (human) (UniProt P08637); experiment: SPR (Biacore), antibody captured on protein A, FcγR ECD as analyte, steady state, 25 °C; remark: listed apart in the source

human FcγRI (CD64) extracellular domain (human), sequence (P12314 16-292): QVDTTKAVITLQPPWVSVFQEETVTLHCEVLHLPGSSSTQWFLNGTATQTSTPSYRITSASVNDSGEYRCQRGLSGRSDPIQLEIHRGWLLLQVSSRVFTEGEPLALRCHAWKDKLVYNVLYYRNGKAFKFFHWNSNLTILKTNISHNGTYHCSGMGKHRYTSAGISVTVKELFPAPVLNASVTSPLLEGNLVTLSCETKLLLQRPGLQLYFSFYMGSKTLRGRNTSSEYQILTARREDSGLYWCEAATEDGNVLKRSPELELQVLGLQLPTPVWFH

pKd [1]	pKd [2]	pKd [3]	pKd [4]	pKd [5]	pKd [6]	pKd [7]	pKd [8]	pKd [9]	pKd [10]	pKd [11]	Substance
9.38	5.13	5.27	5.56	5.64							Hu IgG4 SP control (antibody)
10.28		6.17	5.51	6.13	6.04	6.16	5.43	6.12	10.25	5.89	Hu IgG1 control (antibody)
